Results reported in patent US10130693B2, “Peptides, combination of peptides and scaffolds for use in immunotherapeutic treatment of various cancers” (Immatics Biotechnologies GmbH, priority 2015, dated 2018).

Tested on: CD8+ T cells
Test: In vitro immunogenicity: T-cell priming with aAPCs loaded with HLA-A*24 peptide/MHC and anti-CD28, multimer staining
Format: cell-based, human
Settings: HLA-A*24 peptides, positive wells after priming
Description: CD8+ T cells were primed using artificial APCs coated with anti-CD28 mAb and HLA-A*24 in complex with SEQ ID NO: 99 peptide (FIG. 5A, left panel), SEQ ID NO: 119 peptide (FIG. 5B, left panel), SEQ ID NO: 142 peptide (FIG. 5C, left panel) and SEQ ID NO: 174 peptide FIG. 5 (D, left panel), respectively. After three cycles of stimulation, the detection of peptide-reactive cells was performed by 2D multimer staining with A*24/SEQ ID NO: 99 (FIG. 5A), A*24/SEQ ID NO: 119 (FIG. 5B), A*24/SEQ ID NO: 142 (FIG. 5C) or A*24/SEQ ID NO: 174 (FIG. 5D). Right panels (FIGS. 5A,5B,5C and 5D) show control staining of cells stimulated with irrelevant A*24/peptide complexes. Viable singlet cells were gated for CD8+ lymphocytes. Boolean gates helped excluding false-positive events detected with multimers specific for different peptides. Frequencies of specific multimer+ cells among CD8+ lymphocytes are indicated.
Generation of pMHC/anti-CD28 coated beads, T-cell stimulations and readout was performed in a highly defined in vitro system using four different pMHC molecules per stimulation condition and 8 different pMHC molecules per readout condition.
The purified co-stimulatory mouse IgG2a anti human CD28 Ab 9.3 (Jung et al., 1987) was chemically biotinylated using Sulfo-N-hydroxysuccinimidobiotin as recommended by the manufacturer (Perbio, Bonn, Germany). Beads used were 5.6 μm diameter streptavidin coated polystyrene particles (Bangs Laboratories, Illinois, USA).
800.000 beads/200 μl were coated in 96-well plates in the presence of 4×12.5 ng different biotin-pMHC, washed and 600 ng biotin anti-CD28 were added subsequently in a volume of 200 μl. Stimulations were initiated in 96-well plates by co-incubating 1×10^6 CD8+ T cells with 2×10^5 washed coated beads in 200 μl TCM supplemented with 5 ng/ml IL-12 (PromoCell) for 3 days at 37° C. Half of the medium was then exchanged by fresh TCM supplemented with 80 U/ml IL-2 and incubating was continued for 4 days at 37° C. This stimulation cycle was performed for a total of three times. For the pMHC multimer readout using 8 different pMHC molecules per condition, a two-dimensional combinatorial coding approach was used as previously described (Andersen et al., 2012) with minor modifications encompassing coupling to 5 different fluorochromes. Finally, multimeric analyses were performed by staining the cells with Live/dead near IR dye (Invitrogen, Karlsruhe, Germany), CD8-FITC antibody clone SK1 (BD, Heidelberg, Germany) and fluorescent pMHC multimers. For analysis, a BD LSRII SORP cytometer equipped with appropriate lasers and filters was used. Peptide specific cells were calculated as percentage of total CD8+ cells. Evaluation of multimeric analysis was done using the FlowJo software (Tree Star, Oregon, USA). In vitro priming of specific multimer+CD8+ lymphocytes was detected by comparing to negative control stimulations.

| Substance | in vitro immunogenicity, wells |
| --- | --- |
| 407 (VYGIRLEHF; listed as Homo sapiens) [compound 407] | +++ (50%-69% = +++) |
| 400 (KYLEKYYNL; listed as Homo sapiens) [compound 400] | ++ (20%-49% = ++) |
| 393 (KYIEAIQWI; listed as Homo sapiens) [compound 393] | ++ (20%-49% = ++) |
| 399 (SYIDVLPEF; listed as Homo sapiens) [compound 399] | ++ (20%-49% = ++) |
| 414 (MYPYIYHVL; listed as Homo sapiens) [compound 414] | ++ (20%-49% = ++) |

Molecular target: HLA-A*02:01 (Homo sapiens, UniProt P04439, D140Y/D185E/D98H/E176V/E277Q/G131W/G231S/I119V/I121R/I166T/I218V/L300P/L318F/N151K/N90K/P208A/P217A/Q86G/Q94H/R138H/R169H/T345S)
Test: MHC binding assay, UV-ligand exchange with beta2m ELISA (exchange yield), HLA-A*02
Settings: binding to HLA-A*02 ranged by peptide exchange yield
Source text: Candidate peptides for T cell based therapies according to the present invention were further tested for their MHC binding capacity (affinity). The individual peptide-MHC complexes were produced by UV-ligand exchange, where a UV-sensitive peptide is cleaved upon UV-irradiation, and exchanged with the peptide of interest as analyzed. Only peptide candidates that can effectively bind and stabilize the peptide-receptive MHC molecules prevent dissociation of the MHC complexes. To determine the yield of the exchange reaction, an ELISA was performed based on the detection of the light chain (β2m) of stabilized MHC complexes. The assay was performed as generally described in Rodenko et al. (Rodenko et al., 2006).
96 well MAXISorp plates (NUNC) were coated over night with 2 ug/ml streptavidin in PBS at room temperature, washed 4× and blocked for 1 h at 37° C. in 2% BSA containing blocking buffer. […] Peptide-MHC monomers of the UV-exchange reaction were diluted 100 fold in blocking buffer. Samples were incubated for 1 h at 37° C., washed four times, incubated with 2 ug/ml HRP conjugated anti-β2m for 1h at 37° C., washed again and detected with TMB solution that is stopped with […]. Absorption was measured at 450 nm. Candidate peptides that show a high exchange yield (preferably higher than 50%, most preferred higher than 75%) are generally preferred for a generation and production of antibodies or fragments thereof, and/or T cell receptors or fragments thereof, as they show sufficient avidity to the MHC molecules and prevent dissociation of the MHC complexes.

| Substance | Peptide exchange (MHC class I binding score) |
| --- | --- |
| 41 (FVLPLVVTL; listed as Homo sapiens) [compound 41] | +++ (50%-75% = +++) |
| 14 (LLDHLSFINKI; listed as Homo sapiens) [compound 14] | ++ (20%-49% = ++) |
| 74 (ILDETLENV; listed as Homo sapiens) [compound 74] | ++ (20%-49% = ++) |
| 56 (KILDLTRVL; listed as Homo sapiens) [compound 56] | ++ (20%-49% = ++) |
| 50 (EYALLYHTL; listed as Homo sapiens) [compound 50] | ++ (20%-49% = ++) |
| 77 (IVLSTIASV; listed as Homo sapiens) [compound 77] | +++ (50%-75% = +++) |
| 10 (KTLDVFNIIL; listed as Homo sapiens) [compound 10] | ++ (20%-49% = ++) |
| 46 (SLAKHGIVAL; listed as Homo sapiens) [compound 46] | +++ (50%-75% = +++) |
| 29 (TLCNKTFTA; listed as Homo sapiens) [compound 29] | +++ (50%-75% = +++) |
| 19 (TLLPTVLTL; listed as Homo sapiens) [compound 19] | +++ (50%-75% = +++) |
| 4 (ELAEIVFKV; listed as Homo sapiens) [compound 4] | +++ (50%-75% = +++) |
| 53 (SLLSHVIVA; listed as Homo sapiens) [compound 53] | +++ (50%-75% = +++) |
| 58 (ALDDSLTSL; listed as Homo sapiens) [compound 58] | ++ (20%-49% = ++) |
| 21 (SLYHRVLLY; listed as Homo sapiens) [compound 21] | ++++ (>=75% = ++++) |
| 44 (GLLWQIIKV; listed as Homo sapiens) [compound 44] | ++ (20%-49% = ++) |
| 70 (GLFSQHFNL; listed as Homo sapiens) [compound 70] | +++ (50%-75% = +++) |
| 23 (AQTVVVIKA; listed as Homo sapiens) [compound 23] | + (<20% = +) |
| 37 (ALINDILGELVKL; listed as Homo sapiens) [compound 37] | +++ (50%-75% = +++) |
| 57 (VLISSTVRL; listed as Homo sapiens) [compound 57] | ++ (20%-49% = ++) |
| 67 (GVIETVTSL; listed as Homo sapiens) [compound 67] | ++ (20%-49% = ++) |
| 72 (GMIGFQVLL; listed as Homo sapiens) [compound 72] | +++ (50%-75% = +++) |
| 64 (GLSSSSYEL; listed as Homo sapiens) [compound 64] | ++ (20%-49% = ++) |
| 18 (YVLNEEDLQKV; listed as Homo sapiens) [compound 18] | +++ (50%-75% = +++) |
| 3 (TLLGKQVTL; listed as Homo sapiens) [compound 3] | +++ (50%-75% = +++) |
| 63 (TLSSERDFAL; listed as Homo sapiens) [compound 63] | + (<20% = +) |

Further lines, results first:

| Peptide exchange (MHC class I binding score) | Substance |
| --- | --- |
| ++ (20%-49% = ++) | 338 (LLYDGKLSSA; listed as Homo sapiens) [compound 338] |
| ++ (20%-49% = ++) | 328 (SVDSAPAAV; listed as Homo sapiens) [compound 328] |
| +++ (50%-75% = +++) | 327 (SIGDIFLKY; listed as Homo sapiens) [compound 327] |
| ++ (20%-49% = ++) | 335 (VLLAAGPSAA; listed as Homo sapiens) [compound 335] |
| +++ (50%-75% = +++) | 78 (LLWGHPRVA; listed as Homo sapiens) [compound 78] |
| +++ (50%-75% = +++) | 323 (ILSVVNSQL; listed as Homo sapiens) [compound 323] |
| ++ (20%-49% = ++) | 339 (VLGPGPPPL; listed as Homo sapiens) [compound 339] |
| ++ (20%-49% = ++) | 82 (VLLRVLIL; listed as Homo sapiens) [compound 82] |
| ++ (20%-49% = ++) | 340 (SVAKTILKR; listed as Homo sapiens) [compound 340] |
| +++ (50%-75% = +++) | 326 (SLLPLVWKI; listed as Homo sapiens) [compound 326] |
| +++ (50%-75% = +++) | 321 (SLWFKPEEL; listed as Homo sapiens) [compound 321] |
| ++ (20%-49% = ++) | 81 (VLFLGKLLV; listed as Homo sapiens) [compound 81] |
| +++ (50%-75% = +++) | 83 (ELLEYLPQL; listed as Homo sapiens) [compound 83] |
| ++ (20%-49% = ++) | 92 (LLRGPPVARA; listed as Homo sapiens) [compound 92] |
| +++ (50%-75% = +++) | 333 (GTFLEGVAK; listed as Homo sapiens) [compound 333] |
| ++ (20%-49% = ++) | 329 (FAWEPSFRDQV; listed as Homo sapiens) [compound 329] |
| +++ (50%-75% = +++) | 87 (YLTEVFLHVV; listed as Homo sapiens) [compound 87] |
| +++ (50%-75% = +++) | 85 (STLDGSLHAV; listed as Homo sapiens) [compound 85] |
